B1: Wnt inhibitory factor 1 (Homo sapiens), Q9Y5W5 (parent)
chain: MARRSAFPAAALWLWSILLCLLALRAEAGPPQEESLYLWIDAHQARVLIGFEEDILIVSEGKMAPFTHDFRKAQQRMPAIPVNIHSMNFTWQAAGQAEYFYEFLSLRSLDKGIMADPTVNVPLLGTVPHKASVVQVGFPCLGKQDGVAAFEVDVIVMNSEGNTILQTPQNAIFFKTCQQAECPGGCRNGGFCNERRICECPDGFHGPHCEKALCTPRCMNGGLCVTPGFCICPPGFYGVNCDKANCSTTCFNGGTCFYPGKCICPPGLEGEQCEISKCPQPCRNGGKCIGKSKCKCSKGYQGDLCSKPVCEPGCGAHGTCHEPNKCQCQEGWHGRHCNKRYEASLIHALRPAGAQLRQHTPSLKKAEERRDPPESNYIW
B2: Wnt inhibitory factor 1 (Homo sapiens), Q9Y5W5 (parent)
chain: B1 chain
partner: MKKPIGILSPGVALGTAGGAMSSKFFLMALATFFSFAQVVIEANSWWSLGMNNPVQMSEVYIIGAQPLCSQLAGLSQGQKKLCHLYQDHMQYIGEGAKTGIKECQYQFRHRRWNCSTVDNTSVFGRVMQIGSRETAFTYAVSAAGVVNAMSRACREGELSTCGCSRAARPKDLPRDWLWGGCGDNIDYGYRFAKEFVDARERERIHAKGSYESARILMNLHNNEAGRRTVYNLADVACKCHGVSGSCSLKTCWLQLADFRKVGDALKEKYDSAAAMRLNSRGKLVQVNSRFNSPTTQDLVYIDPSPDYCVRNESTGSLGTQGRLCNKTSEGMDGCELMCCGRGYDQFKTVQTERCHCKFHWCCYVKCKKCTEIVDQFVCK

In one assay the parent is B1. The conditions noted are these: with wnt3a_mouse Wnt3a.
For the variant MARRSAFPAAALWLRSILLCLLALRAEAGPPQEESLYLWIDAHQARVLIGFEEDILIVSEGKMAPFTHDFRKAQQRMPAIPVNIHSMNFTWQAAGQAEYFYEFLSLRSLDKGIMADPTVNVPLLGTVPHKASVVQVGFPCLGKQDGVAAFEVDVIVMNSEGNTILQTPQNAIFFKTCQQAECPGGCRNGGFCNERRICECPDGFHGPHCEKALCTPRCMNGGLCVTPGFCICPPGFYGVNCDKANCSTTCFNGGTCFYPGKCICPPGLEGEQCEISKCPQPCRNGGKCIGKSKCKCSKGYQGDLCSKPVCEPGCGAHGTCHEPNKCQCQEGWHGRHCNKRYEASLIHALRPAGAQLRQHTPSLKKAEERRDPPESNYIW [W15R], the “effect of a mutation on the interaction” value is “decreasing interaction”.

In another assay the parent is B2. The conditions noted are these: with wnt5a_mouse Wnt5a.
MARRSAFPAAALWLRSILLCLLALRAEAGPPQEESLYLWIDAHQARVLIGFEEDILIVSEGKMAPFTHDFRKAQQRMPAIPVNIHSMNFTWQAAGQAEYFYEFLSLRSLDKGIMADPTVNVPLLGTVPHKASVVQVGFPCLGKQDGVAAFEVDVIVMNSEGNTILQTPQNAIFFKTCQQAECPGGCRNGGFCNERRICECPDGFHGPHCEKALCTPRCMNGGLCVTPGFCICPPGFYGVNCDKANCSTTCFNGGTCFYPGKCICPPGLEGEQCEISKCPQPCRNGGKCIGKSKCKCSKGYQGDLCSKPVCEPGCGAHGTCHEPNKCQCQEGWHGRHCNKRYEASLIHALRPAGAQLRQHTPSLKKAEERRDPPESNYIW [W15R]: the “effect of a mutation on the interaction” value is reported as “increasing interaction”.

Source of the values: IntAct's records for PubMed 22986341.
